{
  "source": "patent US6461841B2",
  "about": "“L-amino acid oxidase from Rhodococcus species” (Degussa AG, priority 2000, dated 2002)",
  "key": {"[1]": {"assay": "pH dependence of the oxidation process", "format": "biochemical, Rhodococcus opacus", "settings": "80 mM TEA-HCl buffer; for L-alanine, L-phenylalanine and L-leucine", "protocol": "The reaction speed of the oxidation of L-amino acids to keto acids in the presence of the L-amino acid oxidase was studied as a function of the pH in the reaction solution. The test batch (200 μL) had the following composition: 10 mM L-amino acid, 25 U/mL peroxidase from horseradish, 80 mM buffer with different pH values and compositions, 0.2 mg/mL o-dianisidine, enzyme in limiting amount."}, "[2]": {"assay": "Determination of the isoelectric point by isoelectric focusing", "format": "physicochemical, Rhodococcus opacus", "settings": "carrier ampholytes on agarose, pH range 4-6", "protocol": "The isoelectric point of the L-amino acid oxidase was determined using isoelectric focusing with carrier ampholytes on agarose, in a pH range of 4-6. The pI is at pH 4.8. Carboanhydrase, β-lactoglobulin, trypsin inhibitor, glucose oxidase were used as marker proteins."}, "[3]": {"assay": "Enzyme test of purification fractions with L-ala (o-dianisidine/POX, 450 nm)", "format": "biochemical, Rhodococcus opacus", "settings": "0.2 M TEA-HCl, pH 7.6, 10 mM L-ala, 30° C.", "protocol": "The cells were digested by means of wet grinding with glass beads. For this purpose, the moist bacteria mass (15 g) was suspended in 50 mM TEA-HCl buffer (pH 7.0), so that the concentration of the moist cell mass was 25%. The cell content substances were released from the ice-cooled suspension by means of mechanical digestion using a glass bead mill (SCP disintegrator, Innomed-Konsult AB, Sweden). For this purpose, the grinding container was filled with 100 mL glass beads (diameter 0.3 mm) and the cell suspension. Digestion was carried out at a stirring shaft speed of 3,000 rpm. The cooling mantle was filled with ice water before the start of the run.\n15 g moist bacteria mass yielded 45 mL crude extract with a volume activity of 0.035 U/mL and a protein content of 9.4 mg/mL. From this, it can be calculated that approximately 150 units L-amino acid oxidase can be obtained from 10 L fermenter batch.\nThe enzyme can be purified by means of ion exchange chromatography, hydrophobic interaction chromatography, and chromatography with hydroxyl apatite as the column material. The crude extract was pumped onto a column (h 5.5×diameter 5 cm) packed with MarcoPrep High Q Support Material (Biorad, Hercules, USA), at a flow velocity of 0.2 mnL/min. The ion exchanger had previously been equilibrated with a buffer, which contained 50 mM TEA-HCl, pH 7.0. […]"}, "[4]": {"assay": "Storage stability of the L-amino acid oxidase as a function of the pH", "format": "physicochemical, Rhodococcus opacus", "settings": "after 100 hours in glycine NaOH buffer at pH 10 and 10.5; room temperature; 24 μg/mL protein", "protocol": "c) Storage Stability of the L-amino Acid Oxidase as a Function of the pH L-amino acid oxidase was incubated in 0.2 M buffer of different compositions, at a protein concentration of 24, μg/mL, at room temperature. Afterwards, the residual activity was determined using 0.2 M TEA buffer, pH 7.6, and 10 mM L-ala. […] After 100 hours in glycine NaOH buffer, it was still possible to detect more than 90% activity at pH 10 and 10.5."}, "[5]": {"assay": "Storage stability of the L-amino acid oxidase at 4° C.", "format": "physicochemical, Rhodococcus opacus", "settings": "several months; 0.7 mg/mL protein; 50 mM glycine NaOH buffer, pH 8.6; sterile conditions"}},
  "data": [
    {"molecule": "L-amino acid oxidase: L-amino acid oxidase (L-AAO) from Rhodococcus opacus DSM 43250, SEQ ID NO: 2, homogeneously purified (protein, listed as Rhodococcus opacus) AGDLIGKVKGSHSVVVLGGGPAGLCSAFELQKAGYKVTVLEARTRPGGRVWTARGGSEETDLSGETQKCTFSEGHFYNVGATRIPQSHITLDYCRELGVEIQGFGNQNANTFVNYQSDTSLSGQSVTYRAAKADTFGYMSELLKKATDQGALDQVLSREDKDALSEFLSDFGDLSDDGRYLGSSRRGYDSEPGAGLNFGTEKKPFAMQEVIRSGIGRNFSFDFGYDQAMMMFTPVGGMDRIYYAFQDRIGTDNIVFGAEVTSMKNVSEGVTVEYTAGGSKKSITADYAICTIPPHLVGRLQNNLPGDVLTALKAAKPSSSGKLGIEYSRRWWETEDRIYGGASNTDKDISQIMFPYDHYNSDRGVVVAYYSSGKRQEAFESLTHRQRLAKAIAEGSEIHGEKYTRDISSSFSGSWRRTKYSESAWANWAGSGGSHGGAATPEYEKLLEPVDKIYFAGDHLSNAIAWQHGALTSARDVVTHIHERVAQEA", "values": [
      {"measurement": "pH optimum", "setting": "[1]", "value": 8.5},
      {"measurement": "isoelectric point (pI)", "setting": "[2]", "value": 4.8},
      {"measurement": "Spec. act. (U/mg)", "setting": "[3]", "value": 4.6, "unit": "U/mg"},
      {"measurement": "Spec. act. (U/mg)", "setting": "[3]; listed as Hydroxyl apatite pool", "value": 4.61, "unit": "U/mg"},
      {"measurement": "residual activity", "setting": "[4]", "value": "more than 90%"},
      {"measurement": "storage stability at 4° C.", "setting": "[5]", "value": "without any loss of activity"}
    ]}
  ]
}
